T1: IRF1 (mouse, UniProt P15314 1-329)
T1 sequence: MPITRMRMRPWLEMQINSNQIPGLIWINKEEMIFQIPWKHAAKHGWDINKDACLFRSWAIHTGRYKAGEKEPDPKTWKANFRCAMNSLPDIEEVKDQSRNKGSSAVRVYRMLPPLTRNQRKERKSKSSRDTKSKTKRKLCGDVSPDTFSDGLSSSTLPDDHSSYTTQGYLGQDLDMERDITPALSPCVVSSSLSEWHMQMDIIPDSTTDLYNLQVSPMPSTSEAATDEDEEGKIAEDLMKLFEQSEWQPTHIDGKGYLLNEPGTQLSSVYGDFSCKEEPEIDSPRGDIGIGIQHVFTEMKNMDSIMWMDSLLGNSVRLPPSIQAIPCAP

T2: IRF2 (mouse, UniProt P23906 1-349)
T2 sequence: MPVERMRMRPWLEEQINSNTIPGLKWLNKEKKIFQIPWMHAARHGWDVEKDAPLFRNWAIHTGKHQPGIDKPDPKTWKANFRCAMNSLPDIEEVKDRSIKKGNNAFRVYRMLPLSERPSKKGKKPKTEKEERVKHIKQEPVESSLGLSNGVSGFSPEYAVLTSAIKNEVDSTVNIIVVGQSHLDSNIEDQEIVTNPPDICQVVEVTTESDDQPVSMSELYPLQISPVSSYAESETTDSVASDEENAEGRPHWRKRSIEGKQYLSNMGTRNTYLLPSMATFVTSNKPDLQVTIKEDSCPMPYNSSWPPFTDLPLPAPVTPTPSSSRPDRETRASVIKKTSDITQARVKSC

T3: IRF1;IRF2 (mouse;mouse, UniProt P15314;P23906 1-329;1-349, |)
T3 sequence 1: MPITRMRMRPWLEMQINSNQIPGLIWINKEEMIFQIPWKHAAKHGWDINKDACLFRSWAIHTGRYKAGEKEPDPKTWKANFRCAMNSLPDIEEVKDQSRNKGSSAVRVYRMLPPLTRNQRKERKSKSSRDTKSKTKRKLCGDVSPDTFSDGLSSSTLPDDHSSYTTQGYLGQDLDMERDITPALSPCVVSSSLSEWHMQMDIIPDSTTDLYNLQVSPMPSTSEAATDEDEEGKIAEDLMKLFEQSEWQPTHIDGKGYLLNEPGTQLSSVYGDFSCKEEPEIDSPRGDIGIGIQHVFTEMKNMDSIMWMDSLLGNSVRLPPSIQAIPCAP
T3 sequence 2: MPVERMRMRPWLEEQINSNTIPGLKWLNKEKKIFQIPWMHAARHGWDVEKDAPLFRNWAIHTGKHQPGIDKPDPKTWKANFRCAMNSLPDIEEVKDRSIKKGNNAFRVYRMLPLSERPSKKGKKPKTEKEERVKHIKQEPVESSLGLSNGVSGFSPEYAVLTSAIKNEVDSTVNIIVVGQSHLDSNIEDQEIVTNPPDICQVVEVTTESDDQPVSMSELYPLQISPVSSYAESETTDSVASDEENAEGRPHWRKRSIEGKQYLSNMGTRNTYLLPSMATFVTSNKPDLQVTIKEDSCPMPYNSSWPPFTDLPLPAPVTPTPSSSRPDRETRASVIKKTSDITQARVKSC

T4: recombinant full-length mouse IRF1 (mouse, UniProt P15314 1-329)
T4 sequence (looked up): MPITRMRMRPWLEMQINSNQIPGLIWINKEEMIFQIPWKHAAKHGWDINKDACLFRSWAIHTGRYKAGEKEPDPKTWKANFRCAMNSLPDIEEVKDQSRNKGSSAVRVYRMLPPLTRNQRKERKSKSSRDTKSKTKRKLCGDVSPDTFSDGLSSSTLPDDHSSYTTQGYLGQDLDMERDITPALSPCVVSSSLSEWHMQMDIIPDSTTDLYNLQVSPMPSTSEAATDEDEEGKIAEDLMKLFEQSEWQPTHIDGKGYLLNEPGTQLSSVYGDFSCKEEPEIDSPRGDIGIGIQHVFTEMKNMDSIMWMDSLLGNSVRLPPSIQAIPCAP


Columns and labels:
IRF1 = biological target: T1, IRF1; test: EMSA
IRF2 = biological target: T2, IRF2; test: EMSA
IRF1;IRF2 = biological target: T3, IRF1;IRF2; test: EMSA
IRF1;SPOP = IRF1;SPOP (mouse;mouse, UniProt P15314;Q6ZWS8 1-329;28-329, |); test: EMSA
SPOP = SPOP (mouse, UniProt Q6ZWS8 28-329); test: EMSA
[1] = biological target: T4, recombinant full-length mouse IRF1; test: native gel or EMSA

binding result [1]	Binder	binding result (IRF1)	binding result (IRF2)	binding result (IRF1;IRF2)	binding result (IRF1;SPOP)	binding result (SPOP)
–	DNA with a single AAA core (dsDNA) DNA 1: CAGTGAAAGTGCCCCTACCCAGCAC DNA 2: GTGCTGGGTAGGGGCACTTTCACTG	no binding	–	–	–	–
–	Gbp2 promoter probe, single IRF motif (dsDNA) DNA 1: CAGTGAAAGTGAAACTAAAAAGCAC DNA 2: GTGCTTTTTAGTTTCACTTTCACTG	binds	binds	binds	binds	no binding
–	Gbp2 probe, GAAA core and 5'-flanking AA mutated (dsDNA) DNA 1: CAGTGCCCGTGCCCCTACCCAGCAC DNA 2: GTGCTGGGTAGGGGCACGGGCACTG	no binding	no binding	–	–	–
binds	recombinant mouse SPOP (aa28-329) (domain or fragment, UniProt Q6ZWS8 28-329, looked up) KVVKFSYMWTINNFSFCREEMGEVIKSSTFSSGANDKLKWCLRVNPKGLDEESKDYLSLYLLLVSCPKSEVRAKFKFSILNAKGEETKAMESQRAYRFVQGKDWGFKKFIRRDFLLDEANGLLPDDKLTLFCEVSVVQDSVNISGQNTMNMVKVPECRLADELGGLWENSRFTDCCLCVAGQEFQAHKAILAARSPVFSAMFEHEMEESKKNRVEINDVEPEVFKEMMCFIYTGKAPNLDKMADDLLAAADKYALERLKVMCEDALCSNLSVENAAEILILADLHSADQLKTQAVDFINYHA	–	–	–	–	–

Reference: publication doi:10.1101/2025.09.23.678148 (bioRxiv, 2025)
